Assay results from the domain aggregation screens of Martell et al. (2025).

assay: soluble fraction after stress (log2 fold change); higher = more stays soluble; pooled small domains, quantitative proteomics; conditions: stress: pH 4
Procedure, shortened: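 Following acid stress at pH 4, the amount of each small protein domain still soluble was measured in pooled custom libraries by high-throughput quantitative proteomics. Its fold change, on a log2 scale, is higher when more of the domain stayed soluble. This fold change is taken as a measure of aggregation propensity.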

| Sequence | soluble fraction (log2) |
| --- | --- |
| HMLPPVFLTIDANENVIVRKDGEPVQTLNKFELGAFARSQAENSAEQPVVLAADKSIKYEVVMEVI | -0.378 |
| HMLPRLVLSPGTEVLATVMGKYENGMSLVKISSHLFAMDLPSRVQVGDSLRMTFLHQDARPTFALA | -0.142 |
| HMLPSDLDEGNRRRQLIEGAARLFRAKGFDGTSTRDIAAAAGMRSGSPFYHFDSKNALLYVVVQEGM | -0.115 |
| HMLPSWLPTDAWEAFLEARVAMKARPTERAKGLLLGELSKLVSQGQDARAVLEQSVQRGWRGLFPVK | 0.0676 |
| HMLPSWPGVSEFEVARLLRRGRARGSLTLDEVIDVVRDAELTSELIAGIRSSLRAEGIDFEET | -1.85 |
| HMLPTLSLSVKIYKGEGDIALDLEEMVKAFDQLNFGSYPFSEKGVHGTNIVIRGNDKKHMEEAEDKVRSLT | -0.959 |
| HMLPVDALFAQHPALIVTLGQTEKLKHGAAIRDWHFADGTYRVYSETGEFLLLGTVKGQILTTVKSFFE | -0.828 |
| HMLQARKFTHIQGYEFEAEFLRTNGEFVELQDPQGRKKWFPISNFIQDDKDFIKEQAGNLSS | -0.903 |
| HMLQEFTLELATAVVQEFRDQPGALINALHKLQETFGYVDEAAMPVLARLFNLSRAEVHGVASFYHDFRRS | -1.35 |
| HMLQEHVLEIRHPSWNDAFRIIGHDGWRTQTGAHAAILSYDEEELNIKWDSWGYERFIRDEKGIFRLAA | -0.165 |
| HMLQESDPEALRGIVKSVLVDHAAVAEEYRAGKQSVLQFLVGQGMKASKGAGNPGLIRDLMLEEL | -0.184 |
| HMLQLSDAISRVESFLQGQNRNLAFSIDENTERSVVTVLDSDTGDVIRQIPSEELLVLAKRIQELQQD | -1.19 |
| HMLQMSDSSALEAILDEVLGSEMGQKALSDIEAGNMKAMGFIIGQSMKLSKGQANPQIINKLLQQRLK | -0.487 |
| HMLQNLGFKPDLEIRHFPGIVLPDIHRSKKTISLLYTLLAGDIKKLPENEINYKDSKIISSYLWTLLRYH | 0.22 |
| HMLQSGSDYLIEQVRMYTATGQREYMDNYFEELNTTRRRENALEYFAEHYGDNDAFTLLKSAMTTSQN | -0.691 |
| HMLQVRRILQLLADGYSKRQISQQTAVSRNTIDSYEDRFHLTGKSYQELLSMEDGELSGIVYP | 0.321 |
| HMLQVSDENFVVELVQKVLLDNPSSVQEYKNGKESVLQFLIGQAMKASKGTANPQIVKEIMLKLL | -0.443 |
| HMLQYSQEIEEAQKILQNLGLYKGEIDGINGVNTKSAIKEFQRKSGLIIDGILGPNTTSALSKGAESYITV | 0.0398 |
| HMLRISEEVWALVEKTLREDWSPEQVSGKLKASGISVSHERIYQHIYADKRVGGTLWTHLRR | -0.767 |
| HMLRLLEIIAGNEVSKEINSQVIKYYKALKNKKIEEINNLTPSYNKLIISFDLKKKNFREMKKIIEDISIN | -0.436 |
| HMLRPEEMIYHEMLDAILDRRLEPGMKLVEEDLAKTFGVSRARIRATFLQLAHDKLINLVPNRGAFVAEP | -0.561 |
| HMLRRNQVQSQVIPRENGSYVVELQLRDDVDSILRLELTAATEAMARDLADRFRQDPEGVYTRLLSALY | -1.57 |
| HMLRTEYLTVNYAKASEVAELVTASGFLSSRGSITVDERTNTLLLQDTATNIDEVRFMLEQLD | -0.868 |
| HMLSADLLDKIQRIDSLEQQGKYAQAEKEARALLSDPSITPSERASVQNILSSIARKKAAQAQ | 0.0475 |
| HMLSAGTTEQRLAMLQYQWEKQSETYSALGPNNGVVTLGQIRNTMAKIAELAGFKDAAQFWMPVPMDYDV | -0.491 |
| HMLSAPMPGTVLEVHVKEGQRVREGQTLVVMEAMKMEHRVQAPRAGVVTKLHYSEGDRVDVGAILVEIG | -1.31 |

| Sequence | soluble fraction (log2) |
| --- | --- |
| HMLSAQEIPVEDIATRDFVLAEDVVSAKKVLLLPKGVDLSWFGSAKKRLVQRLKSEGVTHIRVFA | 0.008 |
| HMLSFSEAERAVLSLLNRRPDLSAKALASELAVSARTVERYLQSLQQKGKLLRVGAKKGGYWQV | 0.115 |
| HMLSGNLTADAHVHRGLQALSDGRNEDALVDFTKATEVQADFAEAWNKRATVNYLLGRYDAAVLDIQKTLE | 0.0958 |
| HMLSLDDAAFERYDLTMREREVLLLLLNRLTYEEIAERLFISTNTVKTHVGNVYKKTGVSSRKELVSK | -0.953 |
| HMLSLGQQIRNHVLSRIESGEWPEGSRIPSEAKLVELLGASRMTIHIALRDLSAEGVLLRKQGAGTFVAPR | -0.553 |
| HMLSRKEVFTVSQKDIEKNPIGAADKFFDGHVGIHKLLVVDEEDRLRGLFTLSDIERINDEQ | -0.0114 |
| HMLSRTYDSSGPDVKIRGTAQTVADKYMSLARDAQSSGDRVMAENYLQHAEHYNRIIAAAQAQ | 0.221 |
| HMLSSEQQQKLDSLSRKELEVAELVSHGATNKMIARTMNITERTVKAHLTAIFQKMNIPDRLSLAIFFRDL | 0.0769 |
| HMLSSNEIKEIFALFDKSNRGQVATSELGTLVRALNLNPTETEITDMQSKVDPKGQGSFTLDVLEKVVQD | -0.929 |
| HMLSVNREQVEQSLKQEWGFDYDKNLRAAQRAIDVYGDDDLKLLLNGPTGNDPAIVKLFARLGGEVTEE | -0.813 |
| HMLSYIELTVDNTSKASYIMTDKMKINNFKIIGNNTIRVYENKVSPQDISRTLSMNNVSIEALGRKS | -0.253 |
| HMLSYNINEESKSSIMNVNVLKNNFASIDVEKLQNIIFTTFKKYNYYLNDFSSMNLLLHLLIIVDREL | -0.172 |
| HMLTEKEEEVMQILWDNGPLFVREILEFYPDPKPHYNTVSTVIRVLEEKNFASHKAYGNTYQYFP | 0.18 |
| HMLTLEDMTRINSIISPRIKKGQSLYHIAKNNGDELNISESTLRRLVMTGEMDAGIIDLPQAVK | -0.333 |
| HMLTLTNREKQVLVYIAKGHQVAQIAYELKLSGHTINGYIKTIYQKLHISSRAEAALLAQQYGL | -0.138 |
| HMLTRQNFHGIKLPTIHEYIDLLNSRVNANIDKTNNWQSSVSHLRTYLNSHNINAVSKESINNYIDERLN | 0.0397 |
| HMLTRRQSEVLDFIRQFAESESMPPTLHEIAKGMGFSSDNAARDHVRALARKGAIDLVGGTSRGIRLR | -0.331 |
| HMLTRSASREELDQLLKRLRQNLKQKNFFWPPDKEKSLVLYLENLFSKFPLNSSDIRFLHGIIRTLSEK | -0.114 |
| HMLVGKSVIMKTNESSSGMIAGKVNYWENIDGKIYLGINGKLYDIADVDTVLDNDYYDKLVN | -1.14 |
| HMLVKKYTEEETGRQAELSKQLAELSKAYYNTGNSMVDDAVFDKLRDELSSLEKESGFAYDISPNVS | -0.276 |
| HMLVNNSTIETVIDFANVKFGMELTKDQVSEQLRNLSFSQTLKLINSMKADDNDAFSEIIDL | -1.89 |
| HMLVSFGDHLKRYIYERAGIEEPFGEVPQEIYRDIAVDSFRETYTPKSMNPTSTKLPALVNNWLIQ | -0.388 |
| HMLVSVSNYLGQNVDTVKSDLEALGLVVKLKEQQTDRESENGAVLEQSIEGGSKVSAGTPITLTYGK | -0.00697 |
| HMLWTHIALPVRSLDDTMAFYDKYTTLENIHERQDPETNMRSVWLANPGDKTEQAARFVLVLI | -0.126 |
| HMMTDAEKTFIFFSHLSSVEDHIAYGDKQFYMSLFWQHENKRELSSSQLYHLERLYNKYSMEEIEKKEEFS | -1.07 |
| HMMTDEEFLRIAGYMKQRYGIDLGQKKVIMNGRLENHIKSGGWSSFHAFMNDLEKDSSGKLEKELVNLLTT | -0.367 |

| Sequence | soluble fraction (log2) |
| --- | --- |
| HMMTLEESYKLLQVSHNASDIEITKAFKKLALLYHPDKNPSNIDWANKAMASINVAYNTIITHRFKEK | -0.2 |
| HMNAAYDEELDFIFSLSEKGKWEEAEAEIGLLLQKHPEDATLQRIGEWVTTQKILLRQQAVEDRIRS | -0.679 |
| HMNAEWMFDARKIPGLVMNYLRRIAVRAIEEKHYSPELVADLFGIDRTSIYDWLRKYRQQGEEALDTRKA | 0.0142 |
| HMNAFEIYPNPASNLIRIDAEFTVAKIFSQTGNLIQTSTTKEIDVYNLANGIYFVKLDDSPSMVKFVIN | -1.09 |
| HMNALTEAESKLLERMNKAGIHAEITTKKAAGILQRSENGARTVLNSLVKKGYLTVETNKAPYIYHLH | 0.301 |
| HMNAMFEKVLAAVMGFIGVSAFAKNADGKSEMTSDQEKRLTDKWGSKFVEEFKNDLLEYEKNGNAAEDAV | -0.332 |
| HMNAPKKPLSAYFLFSQEERLKVKAENPDYSITEVAKELGKRWATLNPDIKTVYEQRYQDARRIYETEMNT | -0.102 |
| HMNAQLTTIPDLDGMNMRAATAMLSSLGLEVKRIGSGTVFAQFPKAGAAMRPGSMVTIRGKAKSL | 0.22 |
| HMNATLSSSYPTSVVTDGEIYKLTFGLNGKYNGQEQITVKPHGDSNIYDSGGLRAYQNTQSNNVVTLN | -0.254 |
| HMNATQLSNTQKQIRTQLLERLSNNPLTVKQLADRMFVPIDTILKEITALIQEQKIIEDKGGKLQIN | 0.168 |
| HMNAVDLLSPQEQRIFELIGEGMSNRQIADVMYLAEKTVKNYVSNVLMKLGMERRTEAAALAARLDERQK | -0.468 |
| HMNAVITTQKAKQIALAHAGLSEADVNYVKAELENDDGVQVYDIEFYSKNIEYDYDINAVTGEIMSFDHDI | -0.623 |
| HMNAVYPNPFVSEIYIGENNRSVEIYNLNGGLVYGMSQPSSRIDVSGLAAGSYILIKKDSSGHISSHKIMK | -0.261 |
| HMNDAARQTTDILQHVRSSGSISFRDLWRLFMPFMAYRDFDAAVKSLVAAGHIATTENERKELHLIAF | -1.42 |
| HMNDEFYAVVRESYAGYALVKPLDEDVGYDILSVSVKNLKVGDIIRLKVKNIKEIYPPEAEVLEVEVLQ | -1.59 |
| HMNDEQFAIAKNDLLLSLYDGKEVNNSAAEYIIAWESLEKSPSDYISSQLKNTAESIIKISFD | 0.0518 |
| HMNDFVTVPDLQGIFYSEAIKKIDKMGLKEGSIQFVNQDKFLPNTVLNQNPKEGTKVSQDSPINLIIS | -0.594 |
| HMNDILETISNQIRDLRVSKKITQQELAERTNLSVPYISQIENGHRNISLETFIKIVDALDIPLSDFFLP | -1.11 |
| HMNDITVNVEDSKLIVTSNNPEKLPLYIMDIQGHILDKSEITAGTYSFPISDRGTYIVRIGENVYKVI | 0.186 |
| HMNDLKVGELAKRGNVTAETVRHYTREGLLSPTRHPDNGYQLFSATDLERLHFIQRARKLGFSVAEIRDIL | -0.278 |
| HMNDLVTWDRYKIELGDTLSEIAQKLVTRVDILKTVNQIQGTRIIAGNSLMVPRTTDTNVLTYL | -0.728 |
| HMNDPIGDMLTRIRNAQMRGKSTVSTPASKLRAWVLEVLASEGYIRGFERATTDNGQGELVISLD | -0.253 |
| HMNDREAAYEDLPDELVRVGQKVFIKSLETEGVIVQPPNKKGEVRVRSGNISTNVKRSDLGLPIEKP | 0.149 |
| HMNDRRQDVFELLKSSERPVSAADLAHKFGVTRQVIVADIALLRASDIDIVSTNRGYILKANL | 0.0252 |
